The record followed here is paper PMC8469222, “First Dye-Decolorizing Peroxidase from an Ascomycetous Fungus Secreted by Xylaria grammica” (Biomolecules, 2021).

One data set concerns the target T1, XgrDyP (Xylaria grammica, UniProt A0A439DJS1).
T1 construct: gene EKO27_g488; wild-type, natively secreted, purified from Xylaria grammica culture liquid (AEX, SEC, MonoQ); 49 kDa on SDS-PAGE; heme protein
T1 sequence (A0A439DJS1 1-493): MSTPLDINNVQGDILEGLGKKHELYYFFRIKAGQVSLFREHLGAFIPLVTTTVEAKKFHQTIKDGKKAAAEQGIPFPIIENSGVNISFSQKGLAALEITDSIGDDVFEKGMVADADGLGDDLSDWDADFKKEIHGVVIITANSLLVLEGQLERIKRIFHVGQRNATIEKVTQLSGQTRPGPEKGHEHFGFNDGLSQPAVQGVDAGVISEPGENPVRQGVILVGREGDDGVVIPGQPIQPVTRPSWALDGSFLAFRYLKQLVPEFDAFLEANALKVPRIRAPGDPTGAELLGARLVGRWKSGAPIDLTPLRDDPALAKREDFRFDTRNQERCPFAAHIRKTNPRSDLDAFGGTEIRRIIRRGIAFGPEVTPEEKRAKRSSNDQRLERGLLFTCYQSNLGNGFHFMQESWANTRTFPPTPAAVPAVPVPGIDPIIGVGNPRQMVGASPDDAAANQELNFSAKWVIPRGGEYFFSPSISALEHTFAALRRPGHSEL
Briefly: spectrophotometric decolorization at […] nm, Lineweaver-Burk. Particulars: apparent; 50 mM sodium citrate pH 4.5, H2O2 co-substrate held constant, room temperature. It counts as biochemical.

Substrate in data set [1]: CCn1c(=NN=c2sc3cc(S(=O)(=O)O)ccc3n2CC)sc2cc(S(=O)(=O)O)ccc21
The data set can be described thus: purified protein. The format is biochemical, Xylaria grammica. Particulars: apparent, 50 mM sodium citrate pH 4.5, H2O2 co-substrate held constant, room temperature.

Substrate in data set [2]: COc1cccc(OC)c1O
The data set can be described thus: purified protein. The format is biochemical, Xylaria grammica. Particulars: apparent, 50 mM sodium citrate pH 4.5, H2O2 co-substrate held constant, room temperature.

The term Km denotes the substrate concentration at which the rate is half of its maximum. `Nc1c(S(=O)(=O)O)cc(Nc2ccc(S(=O)(=O)O)c(Nc3nc(Cl)nc(Nc4cccc(S(=O)(=O)O)c4)n3)c2)c2c1C(=O)c1ccccc1C2=O` [RBlue5]: the Km at XgrDyP turned out to be 41 µM.

B1: XgrDyP (Xylaria grammica) (protein)
chain: MSTPLDINNVQGDILEGLGKKHELYYFFRIKAGQVSLFREHLGAFIPLVTTTVEAKKFHQTIKDGKKAAAEQGIPFPIIENSGVNISFSQKGLAALEITDSIGDDVFEKGMVADADGLGDDLSDWDADFKKEIHGVVIITANSLLVLEGQLERIKRIFHVGQRNATIEKVTQLSGQTRPGPEKGHEHFGFNDGLSQPAVQGVDAGVISEPGENPVRQGVILVGREGDDGVVIPGQPIQPVTRPSWALDGSFLAFRYLKQLVPEFDAFLEANALKVPRIRAPGDPTGAELLGARLVGRWKSGAPIDLTPLRDDPALAKREDFRFDTRNQERCPFAAHIRKTNPRSDLDAFGGTEIRRIIRRGIAFGPEVTPEEKRAKRSSNDQRLERGLLFTCYQSNLGNGFHFMQESWANTRTFPPTPAAVPAVPVPGIDPIIGVGNPRQMVGASPDDAAANQELNFSAKWVIPRGGEYFFSPSISALEHTFAALRRPGHSEL
notes: wild-type, natively secreted, purified from Xylaria grammica culture liquid (AEX, SEC, MonoQ); 49 kDa on SDS-PAGE; heme protein
For orientation: kcat means the number of substrate molecules converted per active site and unit of time at saturation. The term kcat/Km denotes the turnover number divided by the Michaelis constant. B1: in “purified protein [1]”, the Km turned out to be 41 µM, the kcat worked out at 12 s⁻¹ and the kcat/Km stood at 287000 M⁻¹ s⁻¹. In “purified protein [2]”, the Km is 12 µM, the kcat was 29 s⁻¹ and the catalytic efficiency (kcat/Km) amounted to 2.5e+06 M⁻¹ s⁻¹.
